Assay [1] addresses Soluble FcγRIIb extracellular domain with C-terminal 10xHis tag (UniProt P31994). Put plainly: SPR; IIb-Fold / IIaR-Fold (FcγRIIb over FcγRIIaR). On the technique in general: SPR reads the build-up and loss of mass on a sensor chip optically.
The target is the same in assay [2]. Put plainly: SPR; IIb/IIaR selectivity against control v27294.
Assay [3] shares this target. Put plainly: SPR; FcγRIIb affinity fold against control v27294.
Assay [4] concerns the target Soluble FcγRIIaR extracellular domain with C-terminal 10xHis tag (UniProt P12318). Put plainly: SPR, antibody captured on HER2, receptor as analyte; affinity fold over wild-type v16463.
In assay [5] the target is Soluble FcγRIIb extracellular domain with C-terminal 10xHis tag (UniProt P31994). The description is as above.
Chain of Soluble FcγRIIb extracellular domain with C-terminal 10xHis tag (P31994 other isoform, or with tags, fused parts or gaps): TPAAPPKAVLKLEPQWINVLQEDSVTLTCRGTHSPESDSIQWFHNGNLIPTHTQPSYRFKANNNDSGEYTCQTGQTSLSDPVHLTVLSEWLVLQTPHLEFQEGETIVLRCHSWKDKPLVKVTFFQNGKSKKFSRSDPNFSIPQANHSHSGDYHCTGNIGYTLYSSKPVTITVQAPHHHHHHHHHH

Chain of Soluble FcγRIIaR extracellular domain with C-terminal 10xHis tag (P12318 other isoform, or with tags, fused parts or gaps): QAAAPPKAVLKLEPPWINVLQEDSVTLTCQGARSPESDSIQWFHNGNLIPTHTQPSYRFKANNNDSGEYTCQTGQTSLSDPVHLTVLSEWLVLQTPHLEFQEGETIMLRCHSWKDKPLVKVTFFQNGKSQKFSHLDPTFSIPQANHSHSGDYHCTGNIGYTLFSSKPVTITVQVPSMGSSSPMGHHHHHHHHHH

In assay [1], “Variant v26726, A_D270H_strat2, one-armed trastuzumab antibody” displayed an IIb Selectivity of 14.9 fold. The substance further gave an IIb Selectivity Improvement wrt Control in assay [2] of 1.1 fold. The IIb-Fold wrt Control in assay [3] worked out at 0.7 fold. This substance also yielded an IIaR-fold in assay [4] of 4.1 fold. In addition, the IIb-Fold in assay [5] was found to be 61.7 fold.
Take “Variant v26742, A_P271R_strat2, one-armed trastuzumab antibody”: the IIb Selectivity in assay [1] came to 10.7 fold. In assay [2], the IIb Selectivity Improvement wrt Control came to 0.8 fold. The substance also displayed an IIb-Fold wrt Control in assay [3] of 0.5 fold. Moreover, in assay [4], the IIaR-fold came to 4.4 fold. Also, in assay [5], the IIb-Fold was found to be 47.1 fold.
The matching figures for “Variant v26754, A_E272S_strat2, one-armed trastuzumab antibody”: 14.7 fold, 1.1 fold, 0.7 fold, 4.1 fold and 61 fold.
In the case of “Variant v26756, A_E272N_strat2, one-armed trastuzumab antibody”, the IIb Selectivity in assay [1] was 15.8 fold. Besides, the IIb Selectivity Improvement wrt Control in assay [2] stood at 1.2 fold. In addition, in assay [3], the IIb-Fold wrt Control was found to be 0.6 fold. Moreover, the IIaR-fold in assay [4] was determined as 3.6 fold. The substance further showed an IIb-Fold in assay [5] of 57.6 fold.
Substance “Variant v26723, A_D270E_strat2, one-armed trastuzumab antibody” came in with an IIb Selectivity Improvement wrt Control in assay [2] of 1.1 fold. In assay [3], this substance had an IIb-Fold wrt Control of 1.2 fold. In assay [4], this substance came in with an IIaR-fold of 7.3 fold. Moreover, the IIb-Fold in assay [5] was determined as 109 fold.
In assay [1], “Variant v26738, A_P271Q_strat2, one-armed trastuzumab antibody” showed an IIb Selectivity of 14.1 fold. For the same substance, the IIb Selectivity Improvement wrt Control in assay [2] was 1.1 fold. Besides, in assay [3], the IIb-Fold wrt Control turned out to be 0.6 fold. In addition, the IIaR-fold in assay [4] is 4 fold. Moreover, the IIb-Fold in assay [5] was 56.1 fold.
“Variant v26746, A_E272A_strat2, one-armed trastuzumab antibody” registered an IIb Selectivity in assay [1] of 15.9 fold. The substance also displayed an IIb Selectivity Improvement wrt Control in assay [2] of 1.2 fold. The same substance displayed an IIb-Fold wrt Control in assay [3] of 0.8 fold. The substance also had an IIaR-fold in assay [4] of 4.5 fold. This substance also registered an IIb-Fold in assay [5] of 70.8 fold.
On the same counts, the results for “Variant v26749, A_E272I_strat2, one-armed trastuzumab antibody” are 13.7 fold, 1 fold, 0.9 fold, 6.1 fold and 83.8 fold.
The matching figures for “Variant v26722, A_D270N_strat2, one-armed trastuzumab antibody”: 16.7 fold, 1.3 fold, 0.7 fold, 4 fold and 67.4 fold.
On the same counts, the results for “Variant v26715, A_D270I_strat2, one-armed trastuzumab antibody” are 15.2 fold, 1.1 fold, 0.6 fold, 3.8 fold and 57.9 fold.
In assay [1], “Variant v26721, A_D270Q_strat2, one-armed trastuzumab antibody” came in with an IIb Selectivity of 14.6 fold. For the same substance, in assay [2], the IIb Selectivity Improvement wrt Control stood at 1.1 fold. The same substance displayed an IIb-Fold wrt Control in assay [3] of 0.6 fold. This substance also returned an IIaR-fold in assay [4] of 3.6 fold. The substance further yielded an IIb-Fold in assay [5] of 51.7 fold.
The matching figures for “Variant v26740, A_P271D_strat2, one-armed trastuzumab antibody”: 14.9 fold, 1.1 fold, 0.5 fold, 3.4 fold and 50.5 fold.
“Variant v26731, A_P271L_strat2, one-armed trastuzumab antibody” had an IIb Selectivity in assay [1] of 14.7 fold. The substance further returned an IIb Selectivity Improvement wrt Control in assay [2] of 1.1 fold. The substance also came in with an IIb-Fold wrt Control in assay [3] of 0.7 fold. Moreover, the IIaR-fold in assay [4] is 4.5 fold. The same substance came in with an IIb-Fold in assay [5] of 66.6 fold.
As for “Variant v26760, A_E272H_strat2, one-armed trastuzumab antibody”, the IIb Selectivity in assay [1] was 15.3 fold. In assay [2], this substance returned an IIb Selectivity Improvement wrt Control of 1.1 fold. The IIb-Fold wrt Control in assay [3] was determined as 0.8 fold. In addition, the IIaR-fold in assay [4] worked out at 4.9 fold. In assay [5], the IIb-Fold worked out at 74.1 fold.
For the substance “Variant v26730, A_P271V_strat2, one-armed trastuzumab antibody”, the IIb Selectivity Improvement wrt Control in assay [2] came out at 1.1 fold. The IIb-Fold wrt Control in assay [3] was found to be 0.6 fold. Further, in assay [4], the IIaR-fold was 3.6 fold. Moreover, in assay [5], the IIb-Fold came to 54.4 fold.
The substance “Variant v26745, A_E272G_strat2, one-armed trastuzumab antibody” yielded an IIb Selectivity in assay [1] of 11.6 fold. Moreover, the IIb Selectivity Improvement wrt Control in assay [2] amounted to 0.9 fold. The IIb-Fold wrt Control in assay [3] is 0.6 fold. This substance yielded an IIaR-fold in assay [4] of 4.5 fold. This substance gave an IIb-Fold in assay [5] of 51.6 fold.
On the same counts, the results for “Variant v26716, A_D270F_strat2, one-armed trastuzumab antibody” are 13.5 fold, 1 fold, 0.9 fold, 6.4 fold and 86.7 fold.
“Variant v26753, A_E272T_strat2, one-armed trastuzumab antibody” came in with an IIb Selectivity in assay [1] of 14.7 fold. In addition, in assay [2], the IIb Selectivity Improvement wrt Control was 1.1 fold. This substance also displayed an IIb-Fold wrt Control in assay [3] of 0.7 fold. The IIaR-fold in assay [4] is 4.3 fold. Besides, in assay [5], the IIb-Fold was 62.8 fold.
Turning to “Variant v26757, A_E272D_strat2, one-armed trastuzumab antibody”, the IIb Selectivity in assay [1] is 13.5 fold. The IIb Selectivity Improvement wrt Control in assay [2] is 1 fold. The substance further registered an IIb-Fold wrt Control in assay [3] of 0.7 fold. Moreover, the IIaR-fold in assay [4] was found to be 4.9 fold. This substance also displayed an IIb-Fold in assay [5] of 66.6 fold.
The matching figures for “Variant v26748, A_E272L_strat2, one-armed trastuzumab antibody”: 15.2 fold, 1.1 fold, 0.9 fold, 5.3 fold and 81.3 fold.
In assay [1], “Variant v26732, A_P271I_strat2, one-armed trastuzumab antibody” gave an IIb Selectivity of 12.9 fold. In assay [3], this substance came in with an IIb-Fold wrt Control of 0.6 fold. This substance gave an IIaR-fold in assay [4] of 4.4 fold. In assay [5], this substance returned an IIb-Fold of 56.9 fold.
“Variant v26744, A_P271H_strat2, one-armed trastuzumab antibody” had an IIb Selectivity in assay [1] of 15.1 fold. Further, the IIb Selectivity Improvement wrt Control in assay [2] worked out at 1.1 fold. Moreover, the IIb-Fold wrt Control in assay [3] worked out at 0.6 fold. This substance came in with an IIaR-fold in assay [4] of 3.9 fold. This substance returned an IIb-Fold in assay [5] of 59.3 fold.
The matching figures for “Variant v26719, A_D270T_strat2, one-armed trastuzumab antibody”: 13.2 fold, 1 fold, 0.7 fold, 4.9 fold and 64.2 fold.
On the same counts, the results for “Variant v26750, A_E272F_strat2, one-armed trastuzumab antibody” are 13.5 fold, 1 fold, 0.7 fold, 4.5 fold and 61.2 fold.
The matching figures for “Variant v26718, A_D270Y_strat2, one-armed trastuzumab antibody”: 12.1 fold, 0.9 fold, 0.6 fold, 4.5 fold and 54.6 fold.
“Variant v26734, A_P271W_strat2, one-armed trastuzumab antibody” gave an IIb Selectivity in assay [1] of 12.3 fold. The same substance registered an IIb Selectivity Improvement wrt Control in assay [2] of 0.9 fold. Besides, the IIb-Fold wrt Control in assay [3] was found to be 0.6 fold. In assay [4], this substance displayed an IIaR-fold of 4.3 fold. The substance also displayed an IIb-Fold in assay [5] of 52.5 fold.
In turn, “Variant v26728, A_P271G_strat2, one-armed trastuzumab antibody” yielded an IIb Selectivity in assay [1] of 13.5 fold. In addition, the IIb-Fold wrt Control in assay [3] was 0.7 fold. In addition, in assay [4], the IIaR-fold worked out at 4.8 fold. The substance further returned an IIb-Fold in assay [5] of 65.4 fold.
Substance “Variant v26739, A_P271N_strat2, one-armed trastuzumab antibody” returned an IIb Selectivity in assay [1] of 14.9 fold. The same substance registered an IIb Selectivity Improvement wrt Control in assay [2] of 1.1 fold. Moreover, the IIb-Fold wrt Control in assay [3] was determined as 0.5 fold. In assay [4], the IIaR-fold amounted to 3.4 fold. Moreover, the IIb-Fold in assay [5] amounted to 50.9 fold.
The matching figures for “Variant v26741, A_P271E_strat2, one-armed trastuzumab antibody”: 11.7 fold, 0.9 fold, 0.6 fold, 5.1 fold and 59.3 fold.
The matching figures for “Variant v26743, A_P271K_strat2, one-armed trastuzumab antibody”: 12.9 fold, 1 fold, 0.6 fold, 4.3 fold and 55.7 fold.
On the same counts, the results for “Variant v26720, A_D270S_strat2, one-armed trastuzumab antibody” are 12.7 fold, 0.9 fold, 0.5 fold, 3.9 fold and 49.5 fold.

Source of the values: US20240294646A1.
